Values joined by “and” are separate entries in the source; they are usually repeats but may differ in a detail not shown here. Equal entries are not always repeated.

In experiment [1] the target is T1, IGF-1R in untreated IGF-1R overexpressing 3T3 cells (UniProt P08069 31-1367, limits assumed).
T1 construct: whole, on cells; also called IGF-1R (unstimulated)
Put plainly: IHC (Ventana BenchMark XT), ssFab' on 8xC18 linker, FFPE 3T3 cells.
Description: (§1) In order to test the specificity of the anti-pIGF-1R dual binder molecule an elaborate test system based on formalin-fixed paraffin-embedded (FFPE) 3T3 cells was used. 3T3 cells had been stably transfected with either IGF-1R or IR expression vectors. Cells were fixed with formalin and embedded in paraffin according to standard protocols. Prior to fixation cells were stimulated with 100 ng/ml of either IGF-1 or Insulin to induce IGF1-R or IR phosphorylation or were left untreated.
(§2) A biotin label within the linker molecule served as a detection tag for the streptavidin-based Ventana iVIEW DAB detection kit.

Experiment [2] has as its target T2, IR (insulin receptor) in untreated IR overexpressing 3T3 cells (UniProt P06213 28-1382, limits assumed).
T2 construct: whole, on cells; also called IR (unstimulated)
The description is as above.
Description: as §1, §2

The target in experiment [3] is T3, phosphorylated IR in IR overexpressing 3T3 cells stimulated with Insulin (UniProt P06213 28-1382, limits assumed, phosphorylated after stimulation with 100 ng/ml Insulin).
T3 construct: whole, on cells; also called pIR (cells)
T3 sequence (P06213 28-1382 limits assumed): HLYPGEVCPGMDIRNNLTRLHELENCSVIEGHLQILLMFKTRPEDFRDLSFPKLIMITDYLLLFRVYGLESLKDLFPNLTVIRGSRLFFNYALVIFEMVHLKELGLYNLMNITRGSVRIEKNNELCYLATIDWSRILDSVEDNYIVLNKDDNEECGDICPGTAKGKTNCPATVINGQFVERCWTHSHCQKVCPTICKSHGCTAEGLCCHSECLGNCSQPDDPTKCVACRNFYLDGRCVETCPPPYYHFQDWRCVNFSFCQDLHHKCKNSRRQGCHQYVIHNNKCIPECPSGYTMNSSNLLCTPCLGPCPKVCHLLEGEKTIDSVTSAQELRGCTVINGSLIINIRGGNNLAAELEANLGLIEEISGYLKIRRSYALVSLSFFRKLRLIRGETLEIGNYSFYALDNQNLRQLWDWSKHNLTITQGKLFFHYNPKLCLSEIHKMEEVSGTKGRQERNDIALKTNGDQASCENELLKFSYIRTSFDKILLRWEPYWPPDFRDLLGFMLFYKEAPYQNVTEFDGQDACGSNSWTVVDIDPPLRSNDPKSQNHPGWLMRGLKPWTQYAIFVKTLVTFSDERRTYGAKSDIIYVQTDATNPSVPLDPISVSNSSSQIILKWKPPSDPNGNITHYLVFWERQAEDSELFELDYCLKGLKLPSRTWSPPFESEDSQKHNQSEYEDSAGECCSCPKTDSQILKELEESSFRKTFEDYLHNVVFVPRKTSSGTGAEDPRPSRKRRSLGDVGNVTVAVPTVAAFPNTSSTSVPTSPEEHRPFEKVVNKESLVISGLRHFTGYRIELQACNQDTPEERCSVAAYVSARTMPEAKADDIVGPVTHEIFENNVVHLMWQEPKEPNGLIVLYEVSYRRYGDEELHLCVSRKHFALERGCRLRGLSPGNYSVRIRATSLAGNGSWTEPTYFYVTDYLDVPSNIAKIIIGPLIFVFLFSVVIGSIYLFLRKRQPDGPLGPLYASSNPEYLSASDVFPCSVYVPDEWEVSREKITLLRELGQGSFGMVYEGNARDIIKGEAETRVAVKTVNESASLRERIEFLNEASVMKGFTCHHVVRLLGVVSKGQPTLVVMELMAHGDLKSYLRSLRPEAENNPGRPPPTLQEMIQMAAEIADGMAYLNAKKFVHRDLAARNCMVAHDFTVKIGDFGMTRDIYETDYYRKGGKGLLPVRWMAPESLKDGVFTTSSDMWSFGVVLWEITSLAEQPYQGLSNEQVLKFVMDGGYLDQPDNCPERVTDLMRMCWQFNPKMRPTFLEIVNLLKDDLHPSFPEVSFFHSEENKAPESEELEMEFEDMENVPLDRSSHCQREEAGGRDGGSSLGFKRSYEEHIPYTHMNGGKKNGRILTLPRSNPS
Described as above.
Description: as §1, §2

For experiment [4], the target named is T4, human_HER3(1242-1267)-Bi-PEG-amide (human, C-terminal Bi-PEG-amide (biotin); singly grafted on streptavidin).
T4 construct: Injected as analyte, singly grafted on streptavidin
T4 peptide: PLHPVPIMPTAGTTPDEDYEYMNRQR
In words: SPR kinetic screening (Biacore A100), mAb captured by anti-mouse IgG Fc, peptide singly grafted on streptavidin injected.
Description: A Biacore™ A100 instrument under control of the software version V1.1 is used. A Biacore™ CM5 chip is mounted into the instrument and is hydrodynamically addressed conditioned according to the manufacturer's instructions. As a running buffer an HBS-EP buffer is used (10 mM HEPES (pH 7.4), 150 mM NaCl, 1 mM EDTA, 0.05% (w/v) P20). A polyclonal rabbit anti-mouse IgG Fc capture antibody is immobilized at 30 μg/ml in 10 mM sodium acetate buffer (pH 4.5) to spots 1, 2, 4 and 5 in flow cells 1, 2, 3 and 4 at 10,000 RU. The antibody is covalently immobilized via NHS/EDC chemistry. The sensor is deactivated thereafter with a 1 M ethanolamine solution. Spots 1 and 5 are used for the determination and spots 2 and 4 are used as reference. Prior to application to the sensor chip the hybridoma supernatants containing mAbs are diluted 1:2 in HBS-EP buffer. The diluted solution is applied at a flow rate of 30 μl/min for 1 min. […] Thereafter, the signal is recorded for 5 min dissociation time. The sensor is regenerated by injecting a 10 mM glycine-HCl solution (pH 1.7) for 2 min, at a flow rate of 30 μl/min. The dissociation rate constant kd (1/s) is calculated according to a Langmuir model using the evaluation software according to the manufacturer's instructions.

Experiment [5] deals with T5, IGF-1R(1340-1366)[1346-pTyr]amid, phosphorylated IGF-1R peptide (phosphotyrosine at 1346 (IGF-1R numbering); C-terminal amide; in Examples 2.6 and 2.7 a biotinylated PEG-linker bound via glutamic acid at position 1340).
T5 construct: also called pIGF-1R peptide; pIGF-1R
T5 peptide: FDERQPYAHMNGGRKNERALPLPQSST
In words: SPR (Biacore 3000, 25 C), dual binder on biotinylated linker on SA chip, peptide injected; T40 linker (linker 10, spacer T20-Biotin-dT-T20). On the technique in general: SPR reads the build-up and loss of mass on a sensor chip optically.

In experiment [6] the target is T5, IGF-1R(1340-1366)[1346-pTyr]amid, …. In words: SPR (Biacore 3000, SA sensor, 25 C): both ssFab' hybridized on the immobilized biotinylated T40-Bi linker, peptide injected as analyte.
Description: (§3) As a control, buffer was injected instead of the ssFabs.
(§4) The system was regenerated after each concentration step with a 12 sec pulse of 250 mM NaOH and was reloaded with ssFab′ ligand.
Experiment [7] has as its target T6, IGF-1R(1340-1366)amid, non-phosphorylated IGF-1R peptide (C-terminal amide; in Example 2.6 a biotinylated PEG-linker bound via glutamic acid at position 1340).
T6 construct: also called Glu(Bi-PEG-1340]amid
T6 peptide: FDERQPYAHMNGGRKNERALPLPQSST
The experiment is described as above.
Description: as §3, §4

Experiment [8] addresses T5, IGF-1R(1340-1366)[1346-pTyr]amid, …. In words: SPR (Biacore 2000, 25 C), biotinylated peptide on SA chip, 100 nM ssFab' injected.
Description: (§5) 100 nM of analyte (i.e. in these experiments a bi-valent dual binding agent) in solution was injected at 50 μl/min for 240 sec association time and dissociation was monitored for 500 sec. Efficient regeneration was achieved by using a 1 min injection step at 50 μl/min with 80 mM NaOH. Flow cell 1 served as a reference. A blank buffer injection was used instead of an antigen injection to double reference the data by buffer signal subtraction.
(§6) (The digoxigenylation of the middle thymidine (T(-Dig)) in the above linkers is without relevance to these experiments.)
(§7) Report points were set at the end of the analyte association phase (Binding Late, BL) and at the end of the analyte dissociation phase (Stability Late, SL) to monitor the response unit signal heights of each interaction. The dissociation rates kd (1/s) were calculated according to a linear 1:1 Langmuir fit using the Biacore™ evaluation software 4.1. The complex halftimes in minutes were calculated upon the formula In(2)/(60*kd).
The target in experiment [9] is T6, IGF-1R(1340-1366)amid, …. The description is as above.
Description: as §5, §6, §7
Experiment [10] concerns the target T5, IGF-1R(1340-1366)[1346-pTyr]amid, …. In words: SPR (Biacore 3000, SA sensor, 25 C): only ssFab' 1.4.168 hybridized on the immobilized biotinylated T0-Bi linker, peptide injected as analyte.
Description: as §3, §4
Experiment [11] deals with T6, IGF-1R(1340-1366)amid, …. The experiment is described as above.
Description: as §3, §4
Experiment [12] concerns the target T5, IGF-1R(1340-1366)[1346-pTyr]amid, …. In words: SPR (Biacore 3000, SA sensor, 25 C): only ssFab' 1.4.168 hybridized on the immobilized biotinylated T40-Bi linker, peptide injected as analyte.
Description: as §3, §4
The target in experiment [13] is T6, IGF-1R(1340-1366)amid, …. Described as above.
Description: as §3, §4
Experiment [14] has as its target T5, IGF-1R(1340-1366)[1346-pTyr]amid, …. Put plainly: SPR (Biacore 3000, SA sensor, 25 C): only ssFab' 1.4.168 hybridized on the immobilized biotinylated 8xC18 linker, pIGF-1R peptide injected as analyte.
Description: 89 RU amino-PEO-biotin were captured on the reference flow cell 1.
The system was regenerated after each concentration step with a 12 sec pulse of 250 mM NaOH and was reloaded with ssFab ligand.
For experiment [15] the target is unchanged. In words: SPR (Biacore 3000, 25 C), dual binder on biotinylated linker on SA chip, peptide injected; T0 linker (no spacer).
Experiment [16] has the same target. In words: SPR (Biacore 3000, SA sensor, 25 C): both ssFab' hybridized on the immobilized biotinylated T0-Bi linker, peptide injected as analyte.
Description: as §3, §4
For experiment [17], the target named is T6, IGF-1R(1340-1366)amid, …. Described as above.
Description: as §3, §4
The target of experiment [18] is T5, IGF-1R(1340-1366)[1346-pTyr]amid, …. Put plainly: SPR sandwich assay (Biacore T100, 13 C), FIG. 7.
Description: A Biacore™ T100 instrument (GE Healthcare) was used with a Biacore™ CM5 sensor mounted into the system. The sensor was preconditioned by a 1 min injection at 100 μl/min of 0.1% SDS, 50 mM NaOH, 10 mM HCl and 100 mM H3PO4.
The Biacore™ T100 System was driven under the control software V1.1.1. Polyclonal rabbit IgG antibody <IgGFCγM>R (Jackson ImmunoResearch Laboratories Inc.) at 30 μg/ml in 10 mM Na-Acetate pH 4.5 was immobilized at 10 000 RU on the flow cells 1, 2, 3, and 4, respectively, via EDC/NHS chemistry according to the manufacturer's instructions. Finally, the sensor surface was blocked with 1M ethanolamine. The complete experiment was driven at 13° C.
3 μM of an IgG fragment mixture (of IgG classes IgG1, IgG2a, IgG2b, IgG3) containing blocking solution was injected at 30 μl/min for 5 min.

T2 sequence (P06213 28-1382 limits assumed): as the sequence (P06213 28-1382 limits assumed) above
T1 sequence (P08069 31-1367 limits assumed): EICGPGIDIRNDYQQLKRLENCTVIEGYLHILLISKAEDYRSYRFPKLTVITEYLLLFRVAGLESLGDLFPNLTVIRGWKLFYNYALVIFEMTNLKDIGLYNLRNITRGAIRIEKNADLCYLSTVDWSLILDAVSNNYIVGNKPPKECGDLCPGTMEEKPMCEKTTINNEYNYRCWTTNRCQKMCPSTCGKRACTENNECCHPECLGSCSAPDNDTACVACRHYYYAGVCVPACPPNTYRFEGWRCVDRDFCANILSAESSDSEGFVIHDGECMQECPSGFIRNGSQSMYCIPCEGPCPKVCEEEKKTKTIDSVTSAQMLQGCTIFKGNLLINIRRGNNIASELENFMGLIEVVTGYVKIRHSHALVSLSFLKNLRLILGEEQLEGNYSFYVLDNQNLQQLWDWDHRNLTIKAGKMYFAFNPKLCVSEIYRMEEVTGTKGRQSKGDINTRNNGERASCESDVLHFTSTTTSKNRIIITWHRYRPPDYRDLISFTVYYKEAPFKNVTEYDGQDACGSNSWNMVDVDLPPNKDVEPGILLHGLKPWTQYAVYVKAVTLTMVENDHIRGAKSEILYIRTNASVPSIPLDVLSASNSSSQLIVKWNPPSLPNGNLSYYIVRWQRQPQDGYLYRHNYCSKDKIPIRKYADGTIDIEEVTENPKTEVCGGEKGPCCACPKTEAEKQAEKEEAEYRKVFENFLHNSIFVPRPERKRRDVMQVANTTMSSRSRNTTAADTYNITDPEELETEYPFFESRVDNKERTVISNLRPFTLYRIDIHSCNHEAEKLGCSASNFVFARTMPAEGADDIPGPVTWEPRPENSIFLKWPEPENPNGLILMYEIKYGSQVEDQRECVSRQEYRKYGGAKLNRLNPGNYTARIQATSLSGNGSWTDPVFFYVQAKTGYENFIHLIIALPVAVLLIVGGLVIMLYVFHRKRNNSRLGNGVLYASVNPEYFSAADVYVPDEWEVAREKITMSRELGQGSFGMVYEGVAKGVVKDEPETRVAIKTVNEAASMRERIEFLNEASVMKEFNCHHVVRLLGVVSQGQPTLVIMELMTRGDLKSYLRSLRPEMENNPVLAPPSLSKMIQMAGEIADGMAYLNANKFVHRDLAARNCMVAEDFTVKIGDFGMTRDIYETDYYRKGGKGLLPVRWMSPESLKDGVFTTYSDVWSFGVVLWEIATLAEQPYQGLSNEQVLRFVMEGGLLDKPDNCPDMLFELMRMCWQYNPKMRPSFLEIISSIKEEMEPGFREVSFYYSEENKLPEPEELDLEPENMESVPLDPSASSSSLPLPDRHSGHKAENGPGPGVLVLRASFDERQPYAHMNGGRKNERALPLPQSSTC

B1: ssFab' 30.4.33 (Fab' of mAb 30.4.33 linked to ssDNA) (Fab, V domains shown)
VH: EVQLQESGPEVAKPGASVKMSCKASGYTFTDYIIHWVKQRPGQDLEWIGYINPYNDKSKYNEKFKDKATLTSDRSSSTSYMDLSTLTSDDSAVYYCTRHGYYRSDGFDYWGQGTTLTVSS
VL: DIVLTQSPTIMSASPGEKVTMTCRASSSVSSSSLHWYQQKPGSSPKLWIYSTSTLASGVPARFSGSGSGTSYSLTISGVETEDAATYYCQQYGTSPYTFGSGTKVDIK
modifications: ssDNA oligonucleotide coupled to the Fab' hinge region
As to B1, the binding result in [1], in experiment [2] and in experiment [3] was “no binding (tested: 0.5 µg/ml)” in each case.

B2: monoclonal antibody 7.2.32 directed against HER3(1242-1267) (antibody, V domains shown)
VH: EVQLQESGGGLVQPKGSLQLSCAASGFTFNTYAMHWVRQAPGKGLEWVARIRTESSDYATDYADSVKDRFIISRDDSQNMLYLQMNNLKSEDTAIYYCVRSSGFDYWGQGTTLTVSS
VL: DIQMTQSPSLPVSLGDQASISCRSSQSLVHDNGNTYLHWFLQKPGQSPKLLIYKVSNRFSGVPDRFGGSGSGTDFTLKISGVEAEDLGVYFCSQGTHVPTFGGGTKLEIK
notes: Mouse monoclonal IgG from hybridoma supernatant, captured by anti-mouse IgG Fc; also called mAb 7.2.32
A word on the koff: it is the rate constant with which the complex falls apart. The low end stands for slow dissociation, the high end for fast dissociation. Regarding B2, in [4], the koff is 0.0023 s⁻¹.

B3: T40-T-Bi linker dual binder with ssFab' 8.1.2 and ssFab' 1.4.168 (linker 10 of example 2.4) (bispecific antibody, V domains shown)
VH 1: EVQLQQSGPALVKPGASVKMSCKASGFTFTSYVIHWVKQKPGQGLEWIGYLNPYNDNTKYNEKFKGKATLTSDRSSSTVYMEFSSLTSEDSAVYFCARRGIYAYDHYFDYWGQGTSLTVSS
VL 1: QIVLTQSPAIMSASPGEKVTLTCSASSSVNYMYWYQQKPGSSPRLLIYDTSNLASGVPVRFSGSGSVTSYSLTISRMEAEDAATYYCQQWSTYPLTFGAGTKLELK
VH 2: QCDVKLVESGGGLVKPGGSLKLSCAASGFTFSDYPMSWVRQTPEKRLEWVATITTGGTYTYYPDSIKGRFTISRDNAKNTLYLQMGSLQSEDAAMYYCTRVKTDLWWGLAYWGQGTLVTVSA
VL 2: QLVLTQSSSASFSLGASAKLTCTLSSQHSTYTIEWYQQQPLKPPKYVMELKKDGSHTTGDGIPDRFSGSSSGADRYLSISNIQPEDESIYICGVGDTIKEQFVYVFGGGTKVTVLG
modifications: 17 mer ssDNA (SEQ ID NO:6, fluorescein) on hinge cysteine; 19 mer ssDNA (SEQ ID NO:5, Cy5) on hinge cysteine
notes: Two Fab'-ssDNA conjugates hybridised on biotinylated 77-mer DNA linker 10 (T20-Biotin-dT-T20) captured on a streptavidin chip; also called T40-Bi
For orientation: Kd means the concentration at which binding is half-saturated. Read a high Kd as a looser complex. Take B3: the Kd in [5] was 0.01 nM; in experiment [6] it was 0.0125 nM; in experiment [7], 0.973 nM and 1 nM. This molecule yielded a t1/2 diss in experiment [7] of 4.3 min.

B4: ssFab' 1.4.168 (Fab' of mAb 1.4.168 covalently linked to 17 mer ssDNA) (Fab, V domains shown)
VH: DVKLVESGGGLVKPGGSLKLSCAASGFTFSDYPMSWVRQTPEKRLEWVATITTGGTYTYYPDSIKGRFTISRDNAKNTLYLQMGSLQSEDAAMYYCTRVKTDLWWGLAYWGQGTLVTVSA
VL: B3 VL 2
modifications: 17 mer ssDNA comprising SEQ ID NO:6 with fluorescein, coupled through maleimide to a cysteine of the Fab' hinge region
notes: Fab' from pepsin cleavage and cysteamine reduction of a murine monoclonal IgG; also called ssFab' 1.004.168; fluorescein-ssFab' 1.4.168
Regarding B4, the binding result in experiment [2] and in experiment [3] was “no binding (tested: 0.5 µg/ml)” in each case. Besides, the T1/2 dis in experiment [8] and in experiment [9] was 3 min throughout. Moreover, the Kd was 2.59 nM and 3 nM in [10]; 1.35 nM and 1 nM in experiment [11]; 2.14 nM and 2 nM in experiment [12]; 1.1 nM and 1 nM in experiment [13]; 2.96 nM and 3 nM in experiment [14]. Besides, the t1/2 diss worked out at 4 min in [10], 4 min in experiment [11] and 3 min in experiment [13].

B5: T0 dual binding agent with ssFab' 8.1.2 and ssFab' 1.4.168 on the biotinylated T0-Bi 37-mer ssDNA-Linker (linker 17 of example 2.4) (bispecific antibody, V domains shown)
VH 1: B3 VH 1
VL 1: B3 VL 1
VH 2: B3 VH 2
VL 2: B3 VL 2
modifications: 17 mer ssDNA (SEQ ID NO:6, fluorescein) on hinge cysteine; 19 mer ssDNA (SEQ ID NO:5, Cy5) on hinge cysteine
With B5, the dissociation constant (Kd) in experiment [15] was 0.03 nM; in experiment [16] it was 0.0344 nM; in [17] it was 1.2 nM and 1 nM. In experiment [17], the t1/2 diss is 5 min.

B6: murine monoclonal antibody M-1.4.168-IgG (antibody, V domains shown)
VH: B4 VH
VL: B3 VL 2
notes: Whole murine IgG from hybridoma; also called mAb 1.4.168; M-1.004.168-IgG
Take B6: the binding result in [18] was “binds”.

Values taken from patent publication US20130288266A1 (ROCHE DIAGNOSTICS OPERATIONS, published 2013).
